One assay has as its target sAnk1-CFP. Briefly: AFRET in COS7 cells, sAnk1-CFP as donor.
The target of assay [1] is SERCA1-CFP (rabbit) (UniProt P04191). Briefly: AFRET in COS7 cells, SERCA1-CFP as donor.
The target of assay [2] is sarco(endo)plasmic reticulum Ca^2+-ATPase 1 (SERCA1) (rabbit) (UniProt P04191). The assay is described as follows: coIP with antibodies to SERCA1 from COS7 extracts, with or without FLAG-SLN.
Assay [3] shares this target. Briefly: amylose resin pull down from COS7 extracts expressing SERCA1, immunoblot densitometry.
Assay [4] has the same target. The assay is described as follows: coIP from COS7 extracts, densitometry.
Assay [5] has the same target. Briefly: coIP with antibodies to sAnk1 from COS7 extracts, densitometry.
The target is the same in assay [6]. Briefly: coIP with antibodies to SERCA1 from COS7 extracts, densitometry.
Assay [7] has the same target. The assay is described as follows: cell-based or functional assay.
Assay [8] has as its target SERCA1-CFP (rabbit) (UniProt P04191). The assay is described as follows: AFRET in living COS7 cells.
The next assay deals with SLN-YFP (rabbit) (UniProt P42532). The assay is described as follows: AFRET in COS7 cells.
Assay [9] has as its target sarco(endo)plasmic reticulum Ca^2+-ATPase 1 (SERCA1) (rabbit) (UniProt P04191). Briefly: coIP with antibodies to SERCA1 from COS7 extracts, densitometry, with FLAG-SLN coexpressed.
In assay [10] the target is SERCA1-CFP (rabbit) (UniProt P04191). Briefly: AFRET in COS7 cells, FLAG-SLN cotransfected.
For assay [11] the target is unchanged. Briefly: AFRET (Δr=rCFP-rFRET) in COS7 cells.
For assay [12] the target is unchanged. The assay is described as follows: AFRET in COS7 cells.

“And” between values parts separate entries of the source, which are not always exact repeats. Equal entries are not always repeated.

Sequence of SERCA1-CFP (rabbit) (P04191 whole entry): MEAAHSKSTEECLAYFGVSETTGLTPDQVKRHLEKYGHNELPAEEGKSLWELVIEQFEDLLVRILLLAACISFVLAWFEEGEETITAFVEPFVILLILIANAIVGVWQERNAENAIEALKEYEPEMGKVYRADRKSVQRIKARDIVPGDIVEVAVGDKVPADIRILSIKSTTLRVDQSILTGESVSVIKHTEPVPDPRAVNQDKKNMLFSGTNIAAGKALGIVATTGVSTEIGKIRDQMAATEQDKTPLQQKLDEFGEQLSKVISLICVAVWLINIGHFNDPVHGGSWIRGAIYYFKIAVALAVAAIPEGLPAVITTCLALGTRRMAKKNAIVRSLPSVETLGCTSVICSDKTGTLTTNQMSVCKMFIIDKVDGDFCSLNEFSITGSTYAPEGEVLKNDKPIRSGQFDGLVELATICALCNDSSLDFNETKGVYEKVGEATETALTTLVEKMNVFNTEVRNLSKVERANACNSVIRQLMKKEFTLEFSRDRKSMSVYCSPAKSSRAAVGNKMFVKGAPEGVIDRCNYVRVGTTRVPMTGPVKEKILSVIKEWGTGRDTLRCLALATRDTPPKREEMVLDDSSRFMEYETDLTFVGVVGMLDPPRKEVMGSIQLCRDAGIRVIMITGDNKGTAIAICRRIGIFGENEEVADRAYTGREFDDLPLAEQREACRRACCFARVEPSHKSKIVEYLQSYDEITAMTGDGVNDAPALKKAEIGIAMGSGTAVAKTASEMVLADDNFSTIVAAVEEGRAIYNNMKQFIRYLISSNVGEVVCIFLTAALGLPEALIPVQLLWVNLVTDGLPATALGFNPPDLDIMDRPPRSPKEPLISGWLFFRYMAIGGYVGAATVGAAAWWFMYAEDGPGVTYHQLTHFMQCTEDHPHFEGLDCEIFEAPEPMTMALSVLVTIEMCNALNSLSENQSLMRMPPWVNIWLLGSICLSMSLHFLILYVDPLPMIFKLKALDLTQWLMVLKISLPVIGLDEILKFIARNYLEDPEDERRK
Sequence of sarco(endo)plasmic reticulum Ca^2+-ATPase 1 (SERCA1) (rabbit) (P04191 whole entry): as above
Sequence of SLN-YFP (rabbit) (P42532 whole entry): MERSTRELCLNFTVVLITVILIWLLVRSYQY

As for dysferlin-YFP, the AFRET Δrmean was -0.028 with sAnk1-CFP and -0.035 with SERCA1-CFP (rabbit) [1].
Consider sAnk1 (29-155)-FLAG, for which, in assay [2], the fold enhancement of the interaction in the presence of FLAG-SLN was determined as 2.7 fold.
“sAnk1 (29-155)-MBP fusion protein (from UniProt P0AEX9 27-392)”: the fold SERCA1 pulled down relative to the MBP control in assay [3] came to 9 fold.
sAnk1 (all-L): the reduction in coIP, normalized to coIP of SERCA1 and sAnk1 (WT) in assay [4] is 50% and 34% to 61% (2×). This substance also showed a percent of SERCA1 coimmunoprecipitated compared to WT in assay [5] of 49%. Moreover, the percent of sAnk1 (all-L) coimmunoprecipitated compared to WT sAnk1 in assay [6] worked out at 49%. In [7], this substance gave a KCa2+ ([Ca^2+] required for half-maximal activation) of SERCA1 Ca^2+-ATPase, COS7 microsomes of 501 nM; a KCa2+ in pCa^2+ units, SERCA1 Ca^2+-ATPase, COS7 microsomes of 6.3 pCa^2+ units; a Mean Kca (nM), Ca^2+-ATPase assay in COS7 microsomes, FIG. 6D of 502 nM; a Mean Kca (pCa), Ca^2+-ATPase assay in COS7 microsomes, FIG. 6D of 6.3 pCa. For the same substance, in assay [7], the ΔKCa2+ relative to SERCA1 Alone was -0.02 pCa^2+ units and the ΔKCa2+, COS7 microsomes was -0.01 pCa^2+ units.
sAnk1 (all-L)-YFP yielded an AFRET Δrmean with SERCA1-CFP (rabbit) [8] of 0.017.
The substance sAnk1-CFP showed an AFRET Δrmean with SLN-YFP (rabbit) of 0.03.
In assay [9], “sAnk1-FLAG (C-terminal FLAG-tagged sAnk1)” came in with a fold increase in coIP with SERCA1 on addition of FLAG-SLN, against co-transfection of SERCA1 and sAnk1 alone of 2.6 fold. In [7], this substance displayed an HEK 293 mean Kca (nM), Ca^2+-ATPase assay of 680 nM; an HEK 293 mean Kca (pCa), Ca^2+-ATPase assay of 6.17 pCa; a KCa2+ ([Ca^2+] required for half-maximal activation) of SERCA1 Ca^2+-ATPase, COS7 microsomes, all assays compiled of 759 nM; a KCa2+ in pCa^2+ units, SERCA1 Ca^2+-ATPase, COS7 microsomes, all assays compiled of 6.12 pCa^2+ units. In [7], this substance registered a Mean Kca (nM), Ca^2+-ATPase assay in COS7 microsomes, FIG. 6B of 708 nM; a Mean Kca (nM), Ca^2+-ATPase assay in COS7 microsomes, FIG. 6D of 794 nM; a Mean Kca (pCa), Ca^2+-ATPase assay in COS7 microsomes, FIG. 6B of 6.15 pCa; a Mean Kca (pCa), Ca^2+-ATPase assay in COS7 microsomes, FIG. 6D of 6.1 pCa. Besides, in assay [7], the shift of SERCA1's apparent Ca^2+ affinity, COS7 microsomes is -0.18 pCa^2+ units; the ΔKCa2+ in HEK293 microsomes is -0.21 pCa^2+ units; the ΔKCa2+ relative to SERCA1 Alone was -0.2 pCa^2+ units; the ΔKCa2+, COS7 microsomes, experiment with sAnk1 (all-L) was -0.22 pCa^2+ units.
Take sAnk1-YFP: the values for the AFRET Δrmean with SERCA1-CFP (rabbit) [8], with SERCA1-CFP (rabbit) [11] and with SERCA1-CFP (rabbit) [12] were 0.043, 0.026 and 0.021, respectively. Further, in the assay with SERCA1-CFP (rabbit) [10], the AFRET Δrmean (cells cotransfected with FLAG-SLN) is 0.036.
